According to patent publication US20220288168A1 (Eli Lilly, published 2022):
Numbered stars: 1 amine (or outer) side, 2 acyl side, 3 side chain; on linkers, the order of the positions; unused ones are H or OH. Bridge positions count the residues as written; N and C are the ends. Square brackets hold non-standard residues; d marks the D form. Side chains are listed from the residue outwards. Ends that are not written are not given here. * marks the point of attachment. C20 diacid = O=C(O)CCCCCCCCCCCCCCCCCCC(=O)*; γGlu = O=C(O)[C@H](CCC(=O)[*:2])N[*:1]; αMeF = C[C@](N)(Cc1ccccc1)C(=O)O; NMeD = CN[C@@H](CC(=O)O)C(=O)O; NMeN = CN[C@@H](CC(N)=O)C(=O)O; αMeL = CC(C)C[C@](C)(N)C(=O)O; Orn = NCCC[C@H](N)C(=O)O; AEEA = NCCOCCOCC(=O)O; CH2 = C([*:1])[*:2]

molecular target: T1, human amylin receptor 1 (hAMY1R): human calcitonin receptor co-expressed with human RAMP1 in UMUC3 cells (human, UniProt P30988 25-474; O60894 27-148); experiment: competitive radioligand binding filter assay, hAMY1R membranes, displacement of 125I-rAMY
T1 construct: whole, on cells; also called AMY1 receptor; hAMYIR
Procedure: The equilibrium dissociation constants (Kd) for the various receptor/radioligand interactions are determined from saturation binding analysis using the same reagents and buffers as described below for compound testing.
Binding reactions are carried out in 0.1 mL total reaction volume in a polystyrene 96 deep-well assay block. […] The binding reaction is initiated by the addition of 0.05 mL of 200 μg/mL hAMY1R diluted in assay buffer to the radioactivity. Assay blocks are gently vortexed, sealed with parafilm, and incubated at RT for approximately 20 hours.

T1 sequence (O60894 27-148, chain 2 of 2, one chain of several): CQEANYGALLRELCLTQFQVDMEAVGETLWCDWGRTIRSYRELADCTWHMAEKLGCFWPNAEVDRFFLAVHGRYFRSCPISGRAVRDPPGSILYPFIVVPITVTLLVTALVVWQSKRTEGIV

| Binder | Ki |
| --- | --- |
| [γGlu]CNTATCATG[Orn]LAE[αMeF]LVRSSN[NMeD]FGPK([γGlu-γGlu-C20 diacid])LPPTEVGSNTY-NH2 (bridge 2-7 via CH2, Acylated form of Compound III) [Compound IV] | 0.0296 nM |
| [γGlu]CNTATCATG[Orn]LAE[αMeF]LVRSSN[NMeN]FGPK([γGlu-γGlu-C20 diacid])LPPTEVGSNTY-NH2 (bridge 2-7 via CH2, Acylated form of Compound I) [Compound II] | 0.017 nM |
| K([γGlu-γGlu-C20 diacid])CETATCATG[Orn][αMeL]AEFLVRSSHNFGPILPPTEVGSNTY-NH2 (bridge 2-7 via CH2, Acylated form of Compound VII) [Compound VIII] | 0.0435 nM |
| K([γGlu-γGlu-C20 diacid])CETATCATG[Orn]LAE[αMeF]LVRSSN[NMeD]FGPILPPTEVGSNTY-NH2 (bridge 2-7 via CH2, Acylated form of Compound V) [Compound VI] | 0.0445 nM |

molecular target: T2, human calcitonin receptor (hCTR) (human, UniProt P30988 25-474); experiment: competitive radioligand binding filter assay, hCTR membranes, displacement of 125I-hCT
T2 construct: whole, on cells; also called human CT receptor
T2 sequence (looked up): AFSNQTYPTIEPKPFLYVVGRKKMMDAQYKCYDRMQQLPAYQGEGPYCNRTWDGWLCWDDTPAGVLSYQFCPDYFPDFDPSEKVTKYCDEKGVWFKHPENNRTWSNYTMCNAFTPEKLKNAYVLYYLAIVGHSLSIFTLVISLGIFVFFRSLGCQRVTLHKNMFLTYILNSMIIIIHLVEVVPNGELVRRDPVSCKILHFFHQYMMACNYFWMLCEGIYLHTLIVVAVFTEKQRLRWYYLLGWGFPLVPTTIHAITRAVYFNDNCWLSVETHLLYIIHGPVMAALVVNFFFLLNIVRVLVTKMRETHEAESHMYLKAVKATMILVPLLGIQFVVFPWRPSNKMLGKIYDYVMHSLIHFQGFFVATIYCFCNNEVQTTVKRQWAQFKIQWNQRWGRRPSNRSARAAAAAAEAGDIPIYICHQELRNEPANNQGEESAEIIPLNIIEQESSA

| Binder | Ki |
| --- | --- |
| [γGlu]CNTATCATG[Orn]LAE[αMeF]LVRSSN[NMeD]FGPK([γGlu-γGlu-C20 diacid])LPPTEVGSNTY-NH2 (bridge 2-7 via CH2, Acylated form of Compound III) [Compound IV] | 665 nM |
| [γGlu]CNTATCATG[Orn]LAE[αMeF]LVRSSN[NMeN]FGPK([γGlu-γGlu-C20 diacid])LPPTEVGSNTY-NH2 (bridge 2-7 via CH2, Acylated form of Compound I) [Compound II] | 202 nM |
| K([γGlu-γGlu-C20 diacid])CETATCATG[Orn][αMeL]AEFLVRSSHNFGPILPPTEVGSNTY-NH2 (bridge 2-7 via CH2, Acylated form of Compound VII) [Compound VIII] | 927 nM |
| K([γGlu-γGlu-C20 diacid])CETATCATG[Orn]LAE[αMeF]LVRSSN[NMeD]FGPILPPTEVGSNTY-NH2 (bridge 2-7 via CH2, Acylated form of Compound V) [Compound VI] | 235 nM |

molecular target: T1, human amylin receptor 1 (hAMY1R): human …; experiment: cell-based or functional assay

| Binder | hAMYIR cAMP EC50 |
| --- | --- |
| [γGlu]CNTATCATG[Orn]LAE[αMeF]LVRSSN[NMeD]FGPK([γGlu-γGlu-C20 diacid])LPPTEVGSNTY-NH2 (bridge 2-7 via CH2, Acylated form of Compound III) [Compound IV] | 0.107 nM |
| [γGlu]CNTATCATG[Orn]LAE[αMeF]LVRSSN[NMeN]FGPK([γGlu-γGlu-C20 diacid])LPPTEVGSNTY-NH2 (bridge 2-7 via CH2, Acylated form of Compound I) [Compound II] | 0.075 nM |
| KCETATCATG[Orn][αMeL]AEFLVRSSHNFGPILPPTEVGSNTY-NH2 (bridge 2-7 via CH2) [Compound VII] | 0.173 nM |
| KCETATCATG[Orn]LAE[αMeF]LVRSSN[NMeD]FGPILPPTEVGSNTY-NH2 (bridge 2-7 via CH2) [Compound V] | 0.139 nM |
| [γGlu]CNTATCATGKLAEFLVRSSNNFGPK([AEEA-AEEA-γGlu-C20 diacid])LPPTEVGSNTY-NH2 (bridge 2-7 via CH2) [Compound IX] | 0.132 nM |
| [γGlu]CNTATCATG[Orn]LAE[αMeF]LVRSSN[NMeN]FGPKLPPTEVGSNTY-NH2 (bridge 2-7 via CH2) [Compound I] | 0.133 nM |
| K([γGlu-γGlu-C20 diacid])CETATCATG[Orn][αMeL]AEFLVRSSHNFGPILPPTEVGSNTY-NH2 (bridge 2-7 via CH2, Acylated form of Compound VII) [Compound VIII] | 0.107 nM |
| [γGlu]CNTATCATG[Orn]LAE[αMeF]LVRSSN[NMeD]FGPKLPPTEVGSNTY-NH2 (bridge 2-7 via CH2) [Compound III] | 0.156 nM |
| K([γGlu-γGlu-C20 diacid])CETATCATG[Orn]LAE[αMeF]LVRSSN[NMeD]FGPILPPTEVGSNTY-NH2 (bridge 2-7 via CH2, Acylated form of Compound V) [Compound VI] | 0.107 nM |

More lines, now with the values ahead:

| hAMYIR cAMP EC50 | Binder |
| --- | --- |
| 0.038 nM | [γGlu]CNTATCATGKLAEFLVRSSNNFGPK([γGlu-γGlu-AEEA-C20 diacid])LPPTEVGSNTY-NH2 (bridge 2-7 via CH2) [Compound XI] |
| 0.113 nM | [γGlu]CNTATCATQ[Orn]LAEFLVRSSNNFGPK([AEEA-AEEA-γGlu-C20 diacid])LPPTEVGSNTY-NH2 (bridge 2-7 via CH2) [Compound XII] |
| 0.078 nM | [γGlu]CGTATCATG[Orn]LAEFLVRSSNNFGPK([γGlu-γGlu-C20 diacid])LPPTEVGSNTY-NH2 (bridge 2-7 via CH2) [Compound XIII] |
| 0.08 nM | [γGlu]CNTATCATGKLAEFLVRSSNNFGPK([γGlu-AEEA-AEEA-C20 diacid])LPPTEVGSNTY-NH2 (bridge 2-7 via CH2) [Compound X] |

molecular target: T2, human calcitonin receptor (hCTR); experiment: cell-based or functional assay

| Binder | hCTR cAMP EC50 |
| --- | --- |
| [γGlu]CNTATCATG[Orn]LAE[αMeF]LVRSSN[NMeD]FGPK([γGlu-γGlu-C20 diacid])LPPTEVGSNTY-NH2 (bridge 2-7 via CH2, Acylated form of Compound III) [Compound IV] | 6.14 nM |
| [γGlu]CNTATCATG[Orn]LAE[αMeF]LVRSSN[NMeN]FGPK([γGlu-γGlu-C20 diacid])LPPTEVGSNTY-NH2 (bridge 2-7 via CH2, Acylated form of Compound I) [Compound II] | 2.34 nM |
| KCETATCATG[Orn][αMeL]AEFLVRSSHNFGPILPPTEVGSNTY-NH2 (bridge 2-7 via CH2) [Compound VII] | 11.9 nM |
| KCETATCATG[Orn]LAE[αMeF]LVRSSN[NMeD]FGPILPPTEVGSNTY-NH2 (bridge 2-7 via CH2) [Compound V] | 17 nM |
| [γGlu]CNTATCATGKLAEFLVRSSNNFGPK([AEEA-AEEA-γGlu-C20 diacid])LPPTEVGSNTY-NH2 (bridge 2-7 via CH2) [Compound IX] | 18.9 nM |
| [γGlu]CNTATCATG[Orn]LAE[αMeF]LVRSSN[NMeN]FGPKLPPTEVGSNTY-NH2 (bridge 2-7 via CH2) [Compound I] | 18 nM |
| K([γGlu-γGlu-C20 diacid])CETATCATG[Orn][αMeL]AEFLVRSSHNFGPILPPTEVGSNTY-NH2 (bridge 2-7 via CH2, Acylated form of Compound VII) [Compound VIII] | 9.69 nM |
| [γGlu]CNTATCATG[Orn]LAE[αMeF]LVRSSN[NMeD]FGPKLPPTEVGSNTY-NH2 (bridge 2-7 via CH2) [Compound III] | 16.3 nM |
| K([γGlu-γGlu-C20 diacid])CETATCATG[Orn]LAE[αMeF]LVRSSN[NMeD]FGPILPPTEVGSNTY-NH2 (bridge 2-7 via CH2, Acylated form of Compound V) [Compound VI] | 13.2 nM |

Other lines, results leading:

| hCTR cAMP EC50 | Binder |
| --- | --- |
| 10.5 nM | [γGlu]CNTATCATGKLAEFLVRSSNNFGPK([γGlu-γGlu-AEEA-C20 diacid])LPPTEVGSNTY-NH2 (bridge 2-7 via CH2) [Compound XI] |
| 25.9 nM | [γGlu]CNTATCATQ[Orn]LAEFLVRSSNNFGPK([AEEA-AEEA-γGlu-C20 diacid])LPPTEVGSNTY-NH2 (bridge 2-7 via CH2) [Compound XII] |
| 9.49 nM | [γGlu]CGTATCATG[Orn]LAEFLVRSSNNFGPK([γGlu-γGlu-C20 diacid])LPPTEVGSNTY-NH2 (bridge 2-7 via CH2) [Compound XIII] |
| 14 nM | [γGlu]CNTATCATGKLAEFLVRSSNNFGPK([γGlu-AEEA-AEEA-C20 diacid])LPPTEVGSNTY-NH2 (bridge 2-7 via CH2) [Compound X] |
